Our source for the Binding ELISA, % of reference standard activity (% of reference standard activity) and Binding ELISA, Reference Standard activity % (% of reference standard activity) values is patent US20240425567A1.

Test [1] concerns the target antigen of the binding ELISA (not given). Nature of the test: binding ELISA relative to reference standard; 25 C inverted, initial. (In general: An ELISA detects its analyte on a solid surface through an enzyme-linked reagent.)
Test [2] has the same target. Nature of the test: binding ELISA relative to reference standard; 40 C inverted, 1 month.
Test [3] shares this target. The experiment in a line: binding ELISA relative to reference standard; 2 to 8 C inverted, initial.
For test [4] the target is unchanged. The experiment in a line: binding ELISA relative to reference standard; 25 C inverted, 0.5 month.
The target is the same in test [5]. Nature of the test: binding ELISA relative to reference standard; 25 C upright, initial.
The target is the same in test [6]. The experiment in a line: binding ELISA relative to reference standard; 25 C inverted, 3 months.
The target is the same in test [7]. Nature of the test: binding ELISA relative to reference standard; 2 to 8 C inverted, 6 months.
Test [8] has the same target. Nature of the test: binding ELISA relative to reference standard; 25 C upright, 6 months.
For test [9] the target is unchanged. The experiment in a line: binding ELISA relative to reference standard; 25 C inverted, 2 months.
For test [10] the target is unchanged. Nature of the test: binding ELISA relative to reference standard; 40 C inverted, 0.5 month.
Test [11] shares this target. The experiment in a line: binding ELISA relative to reference standard; 2 to 8 C inverted, 1 month.
Test [12] shares this target. The experiment in a line: binding ELISA relative to reference standard; 2 to 8 C upright, initial.
The target is the same in test [13]. The experiment in a line: binding ELISA relative to reference standard; 25 C inverted, 1 month.
For test [14] the target is unchanged. Nature of the test: binding ELISA relative to reference standard; 2 to 8 C inverted, 3 months.
For test [15] the target is unchanged. Nature of the test: binding ELISA relative to reference standard; 2 to 8 C inverted, 12 months.
Test [16] has the same target. Nature of the test: binding ELISA relative to reference standard; 40 C inverted, initial.

B1: ADI-58125 (antibody, human IgG1, lambda, V domains shown)
VH: EVQLVESGGGLVKPGGSLRLSCAASGFTFSSYYMNWVRQAPGKGLEWVSSISEDGYSTYYPDSLKGRFTISRDSAKNSLYLQMNSLRADDTAVYYCARDFSGHTAWAGTGFEYWGQGTLVTVSS
VL: QSVLTQPPSVSGAPGQRITISCTGSSSNIGAGYDVHWYQQLPGTAPKLLIYGSSSRNSGVPDRFSGSKSGTSASLAITGLQAEDEADYYCQSYDSSLSVLYTFGTGTKVTVLG
In the case of B1, the Binding ELISA, % of reference standard activity (% of reference standard activity) in test [1] came to 114; in [2], 94; in test [3], 114; in [4], 109; in [5], 114; in [6], 94. For the same molecule, the Binding ELISA, % of reference standard activity (% of reference standard activity) in [7] is 108; in [8] it was 91; in test [9], 111; in [10], 99; in [11] it was 101; in [12], 114. The Binding ELISA, % of reference standard activity (% of reference standard activity) in test [13] was 102; in test [14] it was 111; in test [15], 93; in [16], 114. Further, the Binding ELISA, Reference Standard activity % (% of reference standard activity) in test [1] stood at 114; in [2], 94; in test [4], 109; in [5], 114; in [9], 111; in [10], 99. Also, the Binding ELISA, Reference Standard activity % (% of reference standard activity) in test [13] was found to be 102; in test [16], 114.
